Measurements as given in the RNAGym collection of RNA variant scans (doi:10.1073/pnas.2313332121).
Fewer inactive variants are shown than the library holds.

B1: TPR 5TU (parent)
chain: GGAUCUUCUCGAUCUAACAAAAAAGACAAAUCUGCCACAAAGCUUGAGAGCAUCUUCGGAUGCAGAGGCGGCAGCCUUCGGUGGCGCGAUAGCGCCAACGUUCUCAACUAUGACACGCAAAACGCGUGCUCCGUUGAAUGGAGUUUAUCAUG

Variants of: B1
Assay: polymerase ribozyme fitness, log enrichment relative to wild type (log ratio); higher = more active; in vitro selection for triplet polymerase activity
Method in brief: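 Mutant libraries for each subunit of a heterodimeric triplet polymerase ribozyme were made by PCR and then transcribed. Each library underwent one round of in vitro selection in triplicate: annealing with a biotinylated primer, the partner subunit and triplets, frozen incubation at −7 °C, gel excision of extended constructs, streptavidin-bead capture and RT-PCR. Input and output libraries were Illumina-sequenced, and only genotypes with ≥10 input reads and ≥1 read per output were kept. Fitness is the logarithm, base 2, of genotype enrichment over wild-type enrichment, computed from inverse-variance-weighted replicate averages.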

GGAUCUUCUCGAUCUAACAAAAAAGACAAAUCUGCCACAAAGCUUGAGAGCAUCUGUGGAUGCAGAGGCGGCAGCCUUCGGUGGCGCGAUAGCGCUAACGUUCUCAACUAUGACACGCAAAACGCGUGCUCCGUUGAAUGGAGUUUAUCAUG and GGAUCUUCUCGAUCUAACAAAAAAGACAAAUCUGCCACAAAGCUUGAGAGCAUCUUAGGAUGCAGAGGCGGCAGCCUUCGGUGGCGCGAUAGCGCUAACGUUCUCAACUAUGACACGCAAAACGCGUGCUCCGUUGAAUGGAGUUGAUCAUG are within 0.2 log units of each other in “polymerase ribozyme fitness (log ratio)” value: -0.884 for the first, -0.855 for the second.

First: GGAUCUUCUCGAUCUAACAAAAAAGACAAAUCUGCCACAAAGCUUGAGAGCAUCUUAGGAUGCAGAGGCGGCAGCCUUCGGUGGCGCGAUAGCGCCUACGUUCUCAACUAUGACACGCAAAACACGUGCUCCGUUGAAUUGAGUUUAUCAUG
Second: GGAUCUUCUCGAUCUAACAAAAAAGACAAAUCUGCCACAAAGCUUGAGAGCAUCUGCGGAUGCAGAGGCGGCAGCCUUCGGUGGCGCGAAAGCGCCAACGUUCUCAACUAUGACACGCAAAACGCGUGCUCCGUUGAAUGGAGUUUAUCAUG
The “polymerase ribozyme fitness (log ratio)” value of the first is lower: -4.13 for the first, -3.7 for the second.

Going from GGAUCUUCUCGAUCUAACAAAAAAGACAAAUCUGCCACAAAGCUUGAGAGCAUCUUAGGAUGCAGAGGCGGCAGCCUUCGGUGGCGCGAUAGCGCCAACGUUCUCAUCUAUGACACGCAAAACGCGUGCUCCGUUGAAUGGAGUUUAUCAUG to GGAUCUUCUCGAUCUAACAAAAAAGACAAAUCUGCCACAAAGCUUGAGAGCAUCUGCGGAUGCAGAGGCGGCAGCCUUCGGUGGGGCGAUAGCGCCAACGUUCUCAACUAUGACACGCGAAACGCGUGCUCCGUUGAAUGCAGUUUAUCAUG, the “polymerase ribozyme fitness (log ratio)” value rises from -3.62 to -2.08.

Going from GGAUCUUCUCGAUCUAACAAAAAAGACAAAUCUGCCACAAAGCUUGAGAGCAUCUUAGGAUGCAGAGGCGGCAGCCUUCGGUGGAGCGAUAGCGCCAACGUUCUCAACUAUGACACGCAAAACGCGUGCUCCGUUGAAUGGAGUUUGUCAUG to GGAUCUUCUCGAUCUAACAAAAAAGACAAAUCUGCCACAAAGCUUGAGAGCAUCUUAGGAUGCAGAGGCGGCAGCCUUCGGUGGCGCGAUAGAGCCAACGUUCUCUACUAUGACACGCAAAUCGCGUGCUCCGUUGAAUGGAGUUUAUCAUG, the “polymerase ribozyme fitness (log ratio)” value falls from -1.09 to -2.85.

Going from GGAUCUUCUCGAUCUAACAAAAAAGACAAAUCUGCCACAAAGCUUGAGAGCAUCUCCGGAUGCAGAGGCGGCAGCCUUCGGUGGCGCGAUAGCGCCAACGGUCUCAACUAUGACACGCAUAACGCGUGCUACGUUGAAUGGAGUUUAUCAUG to GGAUCUUCUCGAUCUAACAAAAAAGACAAAUCUGCCACAAAGCUUGAGAGCAUCUUAGGAUGCAGAGGCGGCAGCCUUCGGUGGCGCGAUAGCGCCAACGUUCUCAACUAUGAUACGCAGAACGCGUGUUCCGUUGAAUGGAGUUUAUCAUG, the “polymerase ribozyme fitness (log ratio)” value falls from -2.44 to at most -4.2.

GGAUCUUCUCGAUCUAACAAAAAAGACAAAUCUGCCACAAAGCUUGAGAGCAUCUUAGGAUGCAGGGGCGGCAGCCUUCGGUGGCGAGAUAGCGCCAACGUUCUCAACUAUGACACGCAAAACGCGUGCUCCGUUGAAUGGAGUUUAUCAUG and GGAUCUUCUCGAUCUAACAAAAAAGACAAAUCUGCCACAAAGCUUGAGAGCAUCUGCGGAUGCAGAGGCGGCAGCCUUCGGUAGCGGGAUAGCGCCAACGUUCUCAACUAUGACACGCAUAACGCGUGCUCCGUCGAAUGGAGUUUAUCAUG cannot be ordered by “polymerase ribozyme fitness (log ratio)” value: at most -4.2 for the first, at most -4.2 for the second.

Going from GGAUCUUCUCGAUCUAACAAAAAAGACAAAUCUGCCACAAAGCUUGAGAGCAUCUGCAGAUGCAGAGGCGGCGGCCUUCGGUGGCGCGAUAGCGCCAACGUUCUCAAUUAUGACACGCAAAACGCGUGCUCCGUUGAAUGGAGUUUAUCGUG to GGAUCUUCUCGAUCUAACAAAAAAGACAAAUCUGCCACAAAGCUUGAGAGCAUCUUAGGCUGCAGAGGCGGCAGCCUUCGGUGGCGCGAUAGCGCUAACGUUCUCAACUAUGACACGCAAAACGCGUGCUCAGUUGAAUGGAGUUUAUCAUG, the “polymerase ribozyme fitness (log ratio)” value rises from at most -4.2 to -3.83.

Going from GGAUCUUCUCGAUCUAACAAAAAAGACAAAUCUGCCACAAAGCUUGAGAGCAUCUGCGGAUGCCGAGGCGGCAGCCUUCGGUGGCGCGAUAGCGCCAACGUUCUCAACUAUGACACGCAAAACGCGUGCUCCGUUGAAUGGAGUUUAUCAUG to GGAUCUUCUCGAUCUAACAAAAAAGACAAAUCUGCCACAAAGCUUGAGAGCAUCUGCGGAUGCAGAGGCGGCAGCCUUCGGUGGCGCGAUAGCGCCAACGUUCUCAACUAUGACACGCAAAACGCGUGUUCCGUUGAAUGGAGUUUAUCAUG, the “polymerase ribozyme fitness (log ratio)” value rises from at most -4.2 to -0.408.

Compared with GGAUCUUCUCGAUCUAACAAAAAAGACAAAUCUGCCACAAAGCUUGAGAGCAUCUGCGGAUGCAGAGGCGGCAGCCUUCGGUGGCGCGAUAGCACCAACGUUCUCAACUAUGACACGCAAAACGCGUGCUCCGUUGAAGGGAGUUUAUCAUG, GGAUCUUCUCGAUCUAACAAAAAAGACAAAUCUGCCACAAAGCUUGAGAGCAUCUGCGGAUGCAGAGGUGGCAGCCUUCGGUGGCGCGAUUGCGCCAACGUUCUGAACUAUGACACGCAAAACGCGUGCACCGUUGAAUGGAGUUUAUCAUG is lower in “polymerase ribozyme fitness (log ratio)” value: -1.18 for the first, at most -4.2 for the second.

In the case of GGAUCUUCUCGAUCUAACAAAAAAGACAAAUCUGCCACAAAGCUUGAGAGCAUCUGCGGAUGCAGAGGCGGCAGCCUUCGGUGGCGCGCUAGCGCAAACGUUCUCAACUAUGACAGGCCAAACGCGUGCUCCGUUGAAUGGAGUUUAUCAUG, the “polymerase ribozyme fitness (log ratio)” value is reported as -3.23.
